Positions count from the first letter of the chain named.
B1: insulin-Fc fusion protein of SEQ ID NO: 75 (Fc fusion)
chain: FVNQHLCGSHLVEALELVCGERGFHYGGGGGGSGGGGGIVEQCCTSTCSLDQLENYCGGGGGQGGGGQGGGGQGGGGGECPPCPAPPVAGPSVFLFPPKPKDTLMISRTPEVTCVVVDVSHEDPEVQFNWYVDGVEVHNAKTKPREEQFNSTFRVVSVLTVVHQDWLNGKEYKCKVSNKGLPAPIEKTISKTKGQPREPQVYTLPPSREEMTKNQVSLTCLVKGFYPSDIAVEWESNGQPENNYKTTPPMLDSDGSFFLYSKLTVDKSRWQQGNVFSCSVMHEALHNHYTQKSLSLSPG
notes: HEK293, Protein A; also called hIgG2
B2: insulin-Fc fusion protein of SEQ ID NO: 58 (Fc fusion)
chain: FVNQHLCGSHLVEALELVCGERGFHYGGGGGGSGGGGGIVEQCCTSTCSLDQLENYCGGGGGQGGGGQGGGGQGGGGGRCTDTPPCPVPEPLGGPSVLIFPPKPKDILRITRTPEVTCVVLDLGREDPEVQISWFVDGKEVHTAKTQSREQQFNGTYRVVSVLPIEHQDWLTGKEFKCRVNHIDLPSPIERTISKARGRAHKPSVYVLPPSPKELSSSDTVSITCLIKDFYPPDIDVEWQSNGQQEPERKHRMTPPQLDEDGSYFLYSKLSVDKSRWQQGDPFTCAVMHETLQNHYTDLSLSHSPG
notes: purified on Protein A or Protein G
B3: insulin-Fc fusion protein of SEQ ID NO: 36 (Fc fusion)
chain: FVNQHLCGSDLVEALALVCGERGFFYTDPTGGGPRRGIVEQCCHSICSLYQLENYCNGGGGAGGGGDCPKCPAPEMLGGPSVFIFPPKPKDTLLIARTPEVTCVVVDLDPEDPEVQISWFVDGKQMQTAKTQPREEQFNGTYRVVSVLPIGHQDWLKGKQFTCKVNNKALPSPIERTISKARGQAHQPSVYVLPPSREELSKNTVSLTCLIKDFFPPDIDVEWQSNGQQEPESKYRTTPPQLDEDGSYFLYSKLSVDKSRWQRGDTFICAVMHEALHNHYTQESLSHSPG
modifications: native N-glycosylation site cNg-NB139
notes: HEK293, Protein A
B4: insulin-Fc fusion protein of SEQ ID NO: 26 (Fc fusion)
chain: FVNQHLCGSHLVEALELVCGERGFHYGGGGGGSGGGGGIVEQCCTSTCSLDQLENYCGGGGGQGGGGQGGGGQGGGGGDCPKCPAPEMLGGPSVFIFPPKPKDTLLIARTPEVTCVVVDLDPEDPEVQISWFVDGKQMQTAKTQPREEQFNGTYRVVSVLPIGHQDWLKGKQFTCKVNNKALPSPIERTISKARGQAHQPSVYVLPPSREELSKNTVSLTCLIKDFFPPDIDVEWQSNGQQEPESKYRTTPPQLDEDGSYFLYSKLSVDKSRWQRGDTFICAVMHEALHNHYTQESLSHSPG
modifications: native N-glycosylation site cNg-NB151
B5: insulin-Fc fusion protein of SEQ ID NO: 62 (Fc fusion)
chain: B4 chain with N151S
notes: also called cNg-NB151-S
B6: insulin-Fc fusion protein of SEQ ID NO: 30 (Fc fusion)
chain: B4 chain with E16A, N151S
B7: insulin-Fc fusion protein of SEQ ID NO: 61 (Fc fusion)
chain: B4 chain with D119A, N151S
notes: also called cNg-NB151-S, NB119-A
B8: insulin-Fc fusion protein of SEQ ID NO: 42 (Fc fusion)
chain: B3 chain with N139K
notes: also called cNg-NB139-K; cNg-K
B9: insulin-Fc fusion protein of SEQ ID NO: 41 (Fc fusion)
chain: B3 chain with N139D
notes: also called cNg-NB139-D; cNg-D
B10: insulin-Fc fusion protein of SEQ ID NO: 40 (Fc fusion)
chain: B3 chain with N139S
notes: non-glycosylated canine IgGB Fc; also called cNg-NB139-S; cNg-S

What follows are binders tested against T1, biotinylated human complement component C1q (Sigma-Aldrich) (human, UniProt P02745 23-245; P02746 28-253; P02747 29-245) (assay: ELISA, fusion coated, biotinylated human C1q at 1000 ng/mL).
T1 construct: Sigma-Aldrich', a protein complex; also called complement component 1q; biotinylated-C1q
T1 sequence (P02745 23-245 limits assumed, chain 1 of 3): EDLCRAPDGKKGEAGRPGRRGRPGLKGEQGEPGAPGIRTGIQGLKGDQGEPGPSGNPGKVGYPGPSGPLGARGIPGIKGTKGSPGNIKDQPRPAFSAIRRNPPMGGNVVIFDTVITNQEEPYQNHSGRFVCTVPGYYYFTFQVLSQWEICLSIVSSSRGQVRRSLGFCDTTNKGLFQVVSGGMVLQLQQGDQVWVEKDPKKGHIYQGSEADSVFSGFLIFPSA
T1 sequence (P02746 28-253 limits assumed, chain 2 of 3): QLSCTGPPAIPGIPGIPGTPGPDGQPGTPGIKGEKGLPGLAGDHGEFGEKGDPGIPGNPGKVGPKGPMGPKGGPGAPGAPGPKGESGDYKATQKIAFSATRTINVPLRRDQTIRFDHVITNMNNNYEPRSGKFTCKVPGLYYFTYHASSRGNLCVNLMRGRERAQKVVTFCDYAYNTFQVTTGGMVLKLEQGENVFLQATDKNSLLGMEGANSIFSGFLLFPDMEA
T1 sequence (P02747 29-245 limits assumed, chain 3 of 3): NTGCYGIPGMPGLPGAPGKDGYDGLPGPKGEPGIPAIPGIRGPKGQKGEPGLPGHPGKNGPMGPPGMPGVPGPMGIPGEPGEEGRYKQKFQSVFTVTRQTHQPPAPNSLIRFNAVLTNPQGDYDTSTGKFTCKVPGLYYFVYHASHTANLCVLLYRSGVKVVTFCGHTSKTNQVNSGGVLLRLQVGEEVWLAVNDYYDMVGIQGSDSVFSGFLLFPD

OD450 Ratio to SEQ ID NO: 76 [ratio]	Binder
0.309	B1

The binders below were run against T2, biotinylated recombinant human Fc(gamma)RI (R&D Systems) (human, UniProt P12314 16-288) (assay: ELISA, fusion coated, biotinylated rhFc(gamma)RI at 3000 ng/mL).
T2 construct: soluble in ELISA; also called rhFc(gamma)RI; Fc(gamma) receptor I
T2 sequence (P12314 16-288 limits assumed): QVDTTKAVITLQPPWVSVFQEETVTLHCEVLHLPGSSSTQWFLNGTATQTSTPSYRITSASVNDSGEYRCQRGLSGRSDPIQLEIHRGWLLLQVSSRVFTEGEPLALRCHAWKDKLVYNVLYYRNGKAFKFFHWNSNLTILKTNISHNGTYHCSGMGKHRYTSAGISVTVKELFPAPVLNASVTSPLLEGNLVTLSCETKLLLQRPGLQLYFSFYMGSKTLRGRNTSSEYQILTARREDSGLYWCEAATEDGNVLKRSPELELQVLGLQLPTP
Description: (§1) The binding of insulin-Fc fusion proteins to the Fc(gamma)RI at pH 7.4 is conducted using an ELISA assay as follows using human Fc(gamma)RI (i.e., rhFc(gamma)RI). Insulin-Fc fusion proteins are diluted to 10 μg/mL in sodium bicarbonate buffer at pH 9.6 and coated on Maxisorp (Nunc) microtiter plates overnight at 4° C., after which the microplate strips are washed 5 times with PBST (PBS/0.05% Tween-20) buffer and blocked with Superblock blocking reagent (ThermoFisher). Serial dilutions of biotinylated rhFc(gamma)RI (recombinant human Fc(gamma)RI; R&D Systems) are prepared in PBST/10% Superblock buffer from 3000 ng/mL to 4.1 ng/mL and loaded at 100 μL/well onto the microplate strips coated with insulin-Fc fusion protein. The microtiter plate is incubated for 1 hour at room temperature after which time the microplate strips are washed 5 times with PBST and then loaded with 100 μL/well of streptavidin-HRP diluted 1:10000 in PBST/10% Superblock buffer. After incubating for 45 min, the microplate strips are washed again 5 times with PBST. TMB is added to reveal the bound Fc(gamma)RI proteins and is stopped with ELISA stop reagent (Boston Bioproducts). The plate is read in an ELISA plate reader at 450 nm, and the OD450 values (proportional to the binding of rhFc(gamma)RI to insulin-Fc protein) are plotted against log concentrations of rhFc(gamma)RI added to each well to generate binding curves using GraphPad Prism software. For groupings of compounds with somewhat similar curves, the OD450 at one of the higher concentrations, for instance at rhFc(gamma)RI concentrations of 3000 ng/mL, can be used to identify differences between coated insulin-Fc fusion protein compounds. […]
Finally, select compounds were tested for their likelihood to interact with the immune system by measuring their Fc(gamma) receptor binding activity according to the procedure of Example 15.

OD450 nm [OD450]	OD450 nm minus assay background [OD450]	ratio to SEQ ID NO: 36 [ratio]	Binder
0.253	0.196	0.53	B2
0.428	0.371	1	B3
0.368	0.311	0.84	B4
0.175	0.118	0.32	B5
0.177	0.12	0.32	B6
0.166	0.109	0.29	B7

Target: T2, biotinylated recombinant human …
Test: as above
Remark: another data set of the same source
Description: The binding of insulin-Fc fusion proteins to the Fc(gamma)RI at pH 7.4 was conducted using an ELISA assay as follows using human Fc(gamma)RI (i.e., rhFc(gamma)RI). Insulin-Fc fusion proteins were diluted to 10 μg/mL in sodium bicarbonate buffer at pH 9.6 and coated on Maxisorp (Nunc) microtiter plates overnight at 4° C., after which the microplate strips were washed 5 times with PBST (PBS/0.05% Tween-20) buffer and blocked with Superblock blocking reagent (ThermoFisher). […] The plate was read in an ELISA plate reader at 450 nm, and the OD450 values (proportional to the binding of rhFc(gamma)RI to insulin-Fc protein) were plotted against log concentrations of rhFc(gamma)RI added to each well to generate binding curves using GraphPad Prism software. […] In order to compare differences across multiple insulin-Fc fusion proteins run at different times, the human Fc(gamma)RI assay OD450 Ratio was calculated as the OD450 value of a test insulin-Fc fusion protein compound obtained at a biotinylated-Fc(gamma)RI concentration of 3000 ng/mL, divided by the OD450 value of a reference insulin-Fc fusion protein of SEQ ID NO: 76 obtained at a biotinylated-Fc(gamma)RI concentration of 3000 ng/mL.

OD450 Ratio to SEQ ID NO: 76 [ratio]	Binder
0.045	B1

Each binder was assayed against T2, biotinylated recombinant human … (assay: ELISA, fusion coated, biotinylated rhFc(gamma)RI (concentration not clear from the table head)).
Description: as §1

OD450 nm [OD450]	OD450 nm minus assay background [OD450]	ratio to SEQ ID NO: 36 [ratio]	Binder
0.386	0.323	1	B3
0.126	0.063	0.2	B8
0.204	0.141	0.44	B9
0.14	0.077	0.24	B10

— patent US20210309709A1 (AKSTON BIOSCIENCES, published 2021)
